Numbering of substitutions follows the chain as printed.

For one series, the target named is LIG1 C-terminal (human, UniProt P18858 261-919, del1-260). Briefly: BLI; no Mg2+ listed in buffer; 1 mM HEPES pH 7.4, 20 mM NaCl, 0.02% BSA, 0.002% Tween 20 (BLI, C-Trap, TIRF; TIRF plus oxygen scavenger and 10 mM Trolox); BLI sensors hydrated at 20 C, assay. Particulars: protein: recombinant; tags: 6xHis (pET-24b); AF488 or Cy5 labelled for single-molecule assays; Methods says 3'); nicked duplex. Background: BLI is a label-free optical method that tracks binding on a fibre tip over time.

In series [1] the target is T1, LIG1 full-length (human, UniProt P18858 1-919). Described as above. Particulars: protein: recombinant; tags: 6xHis (pET-24b); AF488 or Cy5 labelled for single-molecule assays; Methods says 3'); nicked duplex.
Series [2] deals with T1, LIG1 full-length. Description: single-molecule TIRF; no Mg2+; bound lifetimes 0.9 s (70%), 8 s (30%); unbound 42 s; 1 mM HEPES pH 7.4, 20 mM NaCl, 0.02% BSA, 0.002% Tween 20 (BLI, C-Trap, TIRF; TIRF plus oxygen scavenger and 10 mM Trolox); BLI sensors hydrated at 20 C, assay. Particulars: protein: recombinant; tags: 6xHis (pET-24b); AF488 or Cy5 labelled for single-molecule assays; label: 5'-biotin on Up; 3'-AF488 on Down; nicked duplex, blunt; nick between 18-nt Up and 16-nt Down on 34-nt template.

T1 sequence (P18858 whole entry): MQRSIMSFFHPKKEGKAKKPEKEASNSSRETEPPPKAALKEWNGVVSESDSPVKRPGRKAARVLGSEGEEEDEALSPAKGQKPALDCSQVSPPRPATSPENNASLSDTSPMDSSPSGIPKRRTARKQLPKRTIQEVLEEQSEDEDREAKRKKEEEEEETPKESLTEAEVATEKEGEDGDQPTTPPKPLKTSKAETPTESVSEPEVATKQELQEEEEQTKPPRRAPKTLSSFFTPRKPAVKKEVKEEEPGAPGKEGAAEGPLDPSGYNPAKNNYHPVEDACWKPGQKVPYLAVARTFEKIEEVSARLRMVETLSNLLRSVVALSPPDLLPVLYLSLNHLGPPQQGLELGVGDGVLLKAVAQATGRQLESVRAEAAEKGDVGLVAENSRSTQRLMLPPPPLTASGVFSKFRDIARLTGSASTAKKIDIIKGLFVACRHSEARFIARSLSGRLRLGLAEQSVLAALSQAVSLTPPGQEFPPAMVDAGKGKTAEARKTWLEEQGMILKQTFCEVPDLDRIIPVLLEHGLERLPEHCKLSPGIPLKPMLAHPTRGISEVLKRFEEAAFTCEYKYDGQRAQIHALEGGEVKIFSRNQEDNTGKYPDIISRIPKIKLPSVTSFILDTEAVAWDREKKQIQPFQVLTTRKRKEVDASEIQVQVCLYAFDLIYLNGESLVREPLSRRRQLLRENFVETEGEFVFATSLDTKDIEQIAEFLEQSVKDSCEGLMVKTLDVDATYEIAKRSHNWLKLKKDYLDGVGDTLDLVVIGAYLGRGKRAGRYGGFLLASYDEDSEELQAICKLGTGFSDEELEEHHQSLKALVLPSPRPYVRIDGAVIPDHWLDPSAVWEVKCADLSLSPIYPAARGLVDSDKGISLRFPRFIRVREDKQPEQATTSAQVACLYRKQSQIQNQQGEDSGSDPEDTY
Sequence of LIG1 C-terminal (P18858 261-919, stated change not applied): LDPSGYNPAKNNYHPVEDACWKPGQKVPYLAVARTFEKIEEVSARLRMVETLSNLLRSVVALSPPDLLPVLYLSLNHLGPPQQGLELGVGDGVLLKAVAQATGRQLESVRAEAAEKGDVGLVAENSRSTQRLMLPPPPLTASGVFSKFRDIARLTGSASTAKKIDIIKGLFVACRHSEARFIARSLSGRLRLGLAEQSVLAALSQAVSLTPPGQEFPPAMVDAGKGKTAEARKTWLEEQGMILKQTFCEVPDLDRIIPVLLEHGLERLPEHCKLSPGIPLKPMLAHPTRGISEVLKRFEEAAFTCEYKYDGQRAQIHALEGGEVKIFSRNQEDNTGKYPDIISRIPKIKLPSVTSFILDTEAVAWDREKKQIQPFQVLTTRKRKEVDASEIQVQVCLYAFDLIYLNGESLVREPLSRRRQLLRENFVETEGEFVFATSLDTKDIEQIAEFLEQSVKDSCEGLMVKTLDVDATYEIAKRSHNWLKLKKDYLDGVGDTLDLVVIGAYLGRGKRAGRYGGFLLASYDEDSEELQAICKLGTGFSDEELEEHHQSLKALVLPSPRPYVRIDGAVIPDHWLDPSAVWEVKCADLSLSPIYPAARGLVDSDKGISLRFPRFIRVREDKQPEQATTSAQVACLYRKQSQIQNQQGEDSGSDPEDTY

B1: nick DNA 3'-dG:C/5'-Bio (BLI) (dsDNA)
DNA 1: CATGGGCGGCATGAACCGGAGGCCCATCCTCACC
DNA 2: GGTGAGGATGGGCCTCCGGTTCATGCCGCCCATG
modifications: single nick
As to B1, the Kd (commonly the free concentration of one partner at which half of the binding sites on the other are occupied at equilibrium, for simple one-to-one binding) came to 196 nM with LIG1 C-terminal and 95 nM in the series with LIG1 full-length [1].

B2: 34-mer single-nick DNA (Up-OH + Down / Template T) (dsDNA)
DNA 1: CATGGGCGGCATGAACCA
DNA 2: GAGGCCCATCCTCACC
DNA 3: B1 DNA 2 with C17T
modifications: 5'-phosphate on Down; 3'-OH at nick
Take B2: the binding result with LIG1 full-length [2] is on record as “binds”.

Values taken from article PMC11551761, “Probing the mechanism of nick searching by LIG1 at the single-molecule level”.
